# Test results taken from patent US20230048360A1 (EUREKA THERAPEUTICS, published 2023).
# B1: anti-GPC3 mIgG1 clone A-58 (antibody, V domains shown)
# VH: QVQLVQSGADVRKPGASVKVSCKASGYTFASHGISWVRQAPGQGLEWLGWISPYTGNTNYAQKFQGRVTMATDTSTSTAYMELRSLRSDDTAIYYCARGKRTLASCFDYWGQGTLVTVSS
# VL: QSVLTQPPSVSVAPGKTARITCGGNNIGSKSVHWYQQKPGQAPVLVVYDDSDRPSGIPERFSGSNSGNTATLTISRVEAGDEADYYCQVWDSSSDHVFGTGTKVTVLG
# notes: Fused to mouse IgG1 heavy chain and light chain constant regions; also called GPC3A mIgG1 clone A-58
# B2: anti-GPC3 mIgG1 clone A-56 (antibody, V domains shown)
# VH: QVQLQQSGAEVKKFGASVKVSCKASGYSFNDYYIHWVRQAPGQGLEWMGWINPNNGDTKYEKKWQGRVTMTRDTSITTAYMELSSLRSDDTAVYYCARFSTHNWWWPTYDYWGQGTLVTVSS
# VL: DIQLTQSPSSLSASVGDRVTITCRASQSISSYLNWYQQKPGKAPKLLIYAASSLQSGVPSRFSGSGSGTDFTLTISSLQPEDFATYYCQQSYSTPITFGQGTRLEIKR
# notes: Fused to mouse IgG1 heavy chain and light chain constant regions
# B3: anti-GPC3 mIgG1 clone A-46 (antibody, V domains shown)
# VH: QVQLVQSGAEVKKPGASVTVSCKASGYRFSNYGVSWVRQAPGQGLEWMGWISGSNGNTNYAQKFLGRVTMTTDTSTTTAYMELSSLRSDDTAVYYCARGNRRYYSPIIDPWGQGTLVTVSS
# VL: QAVLTQPPSVSGTPGQRVTISCSGSSSNFGSNTVHWYQQVPGTAPKLLIFSNTQRPSEIPDRFSGSKSGTSASLAISGLQSEDEADYYCAAWDDSLTGVVFGGGTKLTVLG
# notes: Fused to mouse IgG1 heavy chain and light chain constant regions; also called GPC3A mIgG1 clone A-46
# B4: anti-GPC3 mIgG1 clone A-39 (antibody, V domains shown)
# VH: QVQLVQSGGGLVHPGGSLRLSCAGSGFTFSSYAMHWVRQAPGKGLEWVSAIGTGGGTYYADSVKGRFTISRDNAKNSLYLQMNSLRAEDTAVYYCARYGRKSIDAWGQGTLVTVSS
# VL: SYVLTQPPSVSVAPGKTARITCGGNNIGSKSVHWYQQKPGQAPVLVIYYDSDRPSGIPERFSGSNSGNTATLTISRVEAGDEADYYCQVWDSSSDHWVFGGGTKLTVLG
# notes: also called anti-GPC3 mIgG1 A-39
# B5: #39 GPC3A L2K (bispecific antibody)
# tandem di-scFv: SYVLTQPPSVSVAPGKTARITCGGNNIGSKSVHWYQQKPGQAPVLVIYYDSDRPSGIPERFSGSNSGNTATLTISRVEAGDEADYYCQVWDSSSDHWVFGGGTKLTVLGSRGGGGSGGGGSGGGGSLEMAQVQLVQSGGGLVHPGGSLRLSCAGSGFTFSSYAMHWVRQAPGKGLEWVSAIGTGGGTYYADSVKGRFTISRDNAKNSLYLQMNSLRAEDTAVYYCARYGRKSIDAWGQGTLVTVSSTSGGGGSDVQLVQSGAEVKKPGASVKVSCKASGYTFTRYTMHWVRQAPGQGLEWIGYINPSRGYTNYADSVKGRFTITTDKSTSTAYMELSSLRSEDTATYYCARYYDDHYCLDYWGQGTTVTVSSGEGTSTGSGGSGGSGGADDIVLTQSPATLSLSPGERATLSCRASQSVSYMNWYQQKPGKAPKRWIYDTSKVASGVPARFSGSGSGTDYSLTINSLEAEDAATYYCQQWSSNPLTFGGGTKVEIKHHHHHH
# notes: also called GPC3A-39 L2K
# B6: #51 GPC3A L2K (bispecific antibody)
# tandem di-scFv: QAVLTQPSSASGAPGQRVTISCTGGSSNIGAGYDVHWYQQLPGTAPKLLIYGNSNRPSGVPDRFSGSKSGTSASLAITGLQAEDEADYYCQSYDSSLSGYVFGTGTKVTVLGSRGGGGSGGGGSGGGGSLEMAQVQLVQSGAEVKKPGSSVKVSCKASGGAFSSYAISWVRQAPGQGLEWMGGIIPIFGTANYAQKFQGRVTITADESTSTAYMELSSLRSEDTAVYYCARMLYLSGRYYWDSWGQGTLVTVSSTSGGGGSDVQLVQSGAEVKKPGASVKVSCKASGYTFTRYTMHWVRQAPGQGLEWIGYINPSRGYTNYADSVKGRFTITTDKSTSTAYMELSSLRSEDTATYYCARYYDDHYCLDYWGQGTTVTVSSGEGTSTGSGGSGGSGGADDIVLTQSPATLSLSPGERATLSCRASQSVSYMNWYQQKPGKAPKRWIYDTSKVASGVPARFSGSGSGTDYSLTINSLEAEDAATYYCQQWSSNPLTFGGGTKVEIKHHHHHH
# notes: also called GPC3A-51 L2K
# B7: GPC3A-46 L2K (bispecific antibody)
# chain: QAVLTQPPSVSGTPGQRVTISCSGSSSNFGSNTVHWYQQVPGTAPKLLIFSNTQRPSEIPDRFSGSKSGTSASLAISGLQSEDEADYYCAAWDDSLTGVVFGGGTKLTVLGSRGGGGSGGGGSGGGGSLEMAQVQLVQSGAEVKKPGASVTVSCKASGYRFSNYGVSWVRQAPGQGLEWMGWISGSNGNTNYAQKFLGRVTMTTDTSTTTAYMELSSLRSDDTAVYYCARGNRRYYSPIIDPWGQGTLVTVSSTSGGGGSDVQLVQSGAEVKKPGASVKVSCKASGYTFTRYTMHWVRQAPGQGLEWIGYINPSRGYTNYADSVKGRFTITTDKSTSTAYMELSSLRSEDTATYYCARYYDDHYCLDYWGQGTTVTVSSGEGTSTGSGGSGGSGGADDIVLTQSPATLSLSPGERATLSCRASQSVSYMNWYQQKPGKAPKRWIYDTSKVASGVPARFSGSGSGTDYSLTINSLEAEDAATYYCQQWSSNPLTFGGGTKVEIKHHHHHH
# B8: GPC3A-55 L2K (bispecific antibody)
# chain: QPVLTQPPSVSVAPGKTARITCGGNNIGSKSVHWYQQKPGQAPVLVIYYDSDRPSGIPERFSGSNSGNTATLTISRVEAGDEADYYCQVWDSSSDHYVFGTGTKVTVLGSRGGGGSGGGGSGGGGSLEMAQVQLVQSGAEVKKPGASVKVSCKASGYTFTSYYMHWVRQAPGQGLEWMGIINPSGGSTSYAQKFQGRVTMTRDTSTSTVYMELSSLRSEDTAVYYCARWHGGPYDYWGQGTLVTVSSTSGGGGSDVQLVQSGAEVKKPGASVKVSCKASGYTFTRYTMHWVRQAPGQGLEWIGYINPSRGYTNYADSVKGRFTITTDKSTSTAYMELSSLRSEDTATYYCARYYDDHYCLDYWGQGTTVTVSSGEGTSTGSGGSGGSGGADDIVLTQSPATLSLSPGERATLSCRASQSVSYMNWYQQKPGKAPKRWIYDTSKVASGVPARFSGSGSGTDYSLTINSLEAEDAATYYCQQWSSNPLTFGGGTKVEIKHHHHHH
# B9: GPC3A-34 L2K (bispecific antibody)
# chain: QPVLTQPPSASGTPGQRVTISCSGSSSNIGSNNVIWYQQLPGAAPKLLIYSNHRRPSGVPDRFSGSRSGTSASLAISGLQSEDEADYYCAAWDDSLDGYLFGTGTKVTVLGSRGGGGSGGGGSGGGGSLEMAQVQLQQWGAGLLKPSETLSLTCAVYGGSFSGYYWSWIRQPPGKGLEWIGEINHSGSTNYNPSLKSRVTISVDTSKNQFSLELSSVTAADTAVYYCARGYGGRFDYWGQGTLVTVSSTSGGGGSDVQLVQSGAEVKKPGASVKVSCKASGYTFTRYTMHWVRQAPGQGLEWIGYINPSRGYTNYADSVKGRFTITTDKSTSTAYMELSSLRSEDTATYYCARYYDDHYCLDYWGQGTTVTVSSGEGTSTGSGGSGGSGGADDIVLTQSPATLSLSPGERATLSCRASQSVSYMNWYQQKPGKAPKRWIYDTSKVASGVPARFSGSGSGTDYSLTINSLEAEDAATYYCQQWSSNPLTFGGGTKVEIKHHHHHH
# notes: also called anti-GPC3xCD3 di-scFv derived from GPC3A-34
# B10: GPC3A-37 L2K (bispecific antibody)
# chain: QSVLTQPPSVSAAPGQRVTISCSGTRSNIGSDYVSWYQHLPGTAPKLLVYGDNLRPSGIPDRFSASKSGTSATLGITGLQTGDEADYYCGTWDYTLNGVVFGGGTKLTVLGSRGGGGSGGGGSGGGGSLEMAQVQLVESGGGLVQPGGSLRLSCAASGFTFSSYAMSWVRQAPGKGLEWVSVIYSGGSSTYYADSVKGRFTISRDNSKNTLYLQMNSLRAEDTAVYYCARTSYLNHGDYWGQGTLVTVSSTSGGGGSDVQLVQSGAEVKKPGASVKVSCKASGYTFTRYTMHWVRQAPGQGLEWIGYINPSRGYTNYADSVKGRFTITTDKSTSTAYMELSSLRSEDTATYYCARYYDDHYCLDYWGQGTTVTVSSGEGTSTGSGGSGGSGGADDIVLTQSPATLSLSPGERATLSCRASQSVSYMNWYQQKPGKAPKRWIYDTSKVASGVPARFSGSGSGTDYSLTINSLEAEDAATYYCQQWSSNPLTFGGGTKVEIKHHHHHH
# notes: also called anti-CD3/anti-GPC3 BsAb
# B11: GPC3A-45 L2K (bispecific antibody)
# chain: QSVLTQPPSVSGTPGQRVIISCPGSTSNIGTNTVNWYQQFPGTAPKLLIYSNNQRPSGVPDRFSGSKSGTSASLAISGLQSEDEADYYCAAWDDSLNGVVFGGGTKLTVLGSRGGGGSGGGGSGGGGSLEMAQMQLVQSGGGLVKPGGSLRLSCAASGFTFSDYYMSWIRQAPGKGLEWVSYISSSGSTIYYADSVKGRFTISRDNAKNSLYLQMNSLRAEDTAVYYCARASDLYGDWGQGTLVTVSSTSGGGGSDVQLVQSGAEVKKPGASVKVSCKASGYTFTRYTMHWVRQAPGQGLEWIGYINPSRGYTNYADSVKGRFTITTDKSTSTAYMELSSLRSEDTATYYCARYYDDHYCLDYWGQGTTVTVSSGEGTSTGSGGSGGSGGADDIVLTQSPATLSLSPGERATLSCRASQSVSYMNWYQQKPGKAPKRWIYDTSKVASGVPARFSGSGSGTDYSLTINSLEAEDAATYYCQQWSSNPLTFGGGTKVEIKHHHHHH
# Target: T1, cell surface-bound human GPC3 on GPC3+ HepG2 cells (human, UniProt P51654 25-560, GPI anchor and heparin sulfate side chains, as the filing describes native GPC3)
# T1 construct: Endogenous GPC3 of the HepG2 line; also called Glypican 3; native GPC3
# Assay: FACS, mIgG1 on GPC3-positive HepG2 cells, PE anti-mouse IgG (H and L); control mIgG1 median 93.8
row,Median : PE-A,Binder
1,8030,B1
2,5630,B2
3,9860,B3
4,6380,B4

# Target: T2, full-length human GPC3 over-expressed on SK-Hep1-GPC3 cells (human, UniProt P51654 25-560)
# T2 construct: also called GPC3 over-expressing SK-Hep1 cells
# Assay: FACS, GPC3A L2K on SK-Hep1-GPC3 cells, APC anti-His; same L2K on GPC3-negative SK-Hep1 median 61.6
# Method: Cells were then washed once with PBS. APC-conjugated anti-His tag mouse antibody (R&D Systems) was added to the washed cells in a volume of 100 μl, at 20-fold dilution of 5% FBS in PBS and 0.05% NAN₃ and incubated for 1 hour at 4° C. in the dark. The cells were then washed twice with PBS. The cells were fixed in 3-fold dilution of fixation buffer (BioLegend) in PBS in a volume of 150 μl.
row,Median : APC-A,Binder
1,445,B5
2,677,B6
3,657,B7

# Target: T1, cell surface-bound human GPC3 on GPC3+ …
# Assay: FACS on GPC3+ HepG2 cells, labelled on the sheet GPC3A L2K against control L2K; control L2K median 93.8; axis PE-A
# Method: APC-conjugated anti-His tag mouse antibody (R&D Systems) was added in a volume of 100 μl, a 20-fold dilution of 5% FBS in PBS and 0.05% NaN₃ and incubated for 1 hour at 4° C. in the dark, then washed twice with PBS. The cells were fixed in 3-fold dilution of fixation buffer (BioLegend) in PBS in a volume of 150 μl.
row,Median : PE-A,Binder
1,6380,B5
2,12200,B6
3,9860,B7

# Target: T1, cell surface-bound human GPC3 on GPC3+ …
# Assay: FACS titration on GPC3+ HepG2 cells, anti-His detection
# Method: (§1) APC-conjugated anti-His tag mouse antibody (R&D Systems) was added in a volume of 100 μl, a 20-fold dilution of 5% FBS in PBS and 0.05% NaN₃ and incubated for 1 hour at 4° C. in the dark, then washed twice with PBS. The cells were fixed in 3-fold dilution of fixation buffer (BioLegend) in PBS in a volume of 150 μl. As a separate control, HepG2 cells were also incubated with APC-conjugated anti-His tag mouse antibody (R&D Systems) in the absence of any L2K bispecific antibody.
row,EC50,Binder
1,0.045 µg/mL,B8
2,0.11 µg/mL,B9
3,0.048 µg/mL,B10
4,0.12 µg/mL,B11
5,0.05 µg/mL,B7

# Target: T1, cell surface-bound human GPC3 on GPC3+ …
# Assay: apparent Kd from FACS on GPC3+ HepG2 cells
# Method: as §1
row,Kd,Binder
1,0.86 nM,B8
2,2 nM,B9
3,0.92 nM,B10
4,2.4 nM,B11
5,1 nM,B7

# Target: T3, biotinylated recombinant human GPC3(560) (human, biotin on the C-terminal BirA substrate peptide ; Biotin on a lysine of the C-terminal BirA substrate peptide, which is not in the letters.)
# T3 construct: Made in E. coli BL21 (pET-27b) from inclusion bodies and biotinylated with BirA; also called bt-GPC3(560); soluble bt-GPC3(560) protein
# Assay: SPR, Biacore X100, single-cycle kinetics, bt-GPC3(560) captured on chip, 1:1 model
# Method: All of the proteins used in the assay were diluted in HBS-E buffer prior to use. Briefly, 5-10 μg/ml of bt-GPC3₍₅₆₀₎ was immobilized onto a sensor chip pre-functionalized with CAPture Reagent and injected onto the flow cell. Affinity of the L2K bispecific antibodies for immobilized antigen was measured by injection of the various bispecific antibodies at 0.3-5 mg/ml with a 90 second association phase followed by a 90 second dissociation phase at a flow rate of 30 μl/min. At the end of each run, the surface of the sensor chip was regenerated using the reagents provided in the Biotin CAPture kit. Binding constants were determined by nonlinear regression analysis using a 1:1 binding model (BIACORE™ X-100 evaluation software, FIGS. 15A and 15B). The association-on-rate-kₒₙ, affinity constant-kₐ, dissociation constant-kd, and equilibrium dissociation constant-Kd were then calculated for each L2K clone (Table 14).
Kd,koff,kon,Binder
2.3 nM,0.00161 s⁻¹,705000 M⁻¹ s⁻¹,B8
3.5 nM,0.0014 s⁻¹,400000 M⁻¹ s⁻¹,B9
5.1 nM,0.00289 s⁻¹,567000 M⁻¹ s⁻¹,B10
3.5 nM,0.000455 s⁻¹,128000 M⁻¹ s⁻¹,B11
3.2 nM,0.00129 s⁻¹,399000 M⁻¹ s⁻¹,B7
